Reference: patent US20050048527, “Endonuclease-substrate complexes” (Third Wave Technologies, Inc., published 2005)

T1: Afu FEN1 (Archaeoglobus fulgidus, UniProt O29975 SEQ:1-336)
T1 sequence: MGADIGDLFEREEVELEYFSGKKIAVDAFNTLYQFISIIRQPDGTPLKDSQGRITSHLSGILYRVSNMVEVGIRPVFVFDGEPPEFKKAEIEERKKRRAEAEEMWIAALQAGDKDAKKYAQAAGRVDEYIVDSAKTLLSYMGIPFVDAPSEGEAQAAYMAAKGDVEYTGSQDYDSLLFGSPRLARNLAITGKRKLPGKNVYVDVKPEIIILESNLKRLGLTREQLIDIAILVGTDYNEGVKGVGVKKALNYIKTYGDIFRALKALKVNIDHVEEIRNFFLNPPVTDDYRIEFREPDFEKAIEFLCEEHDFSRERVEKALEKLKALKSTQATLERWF

T2: Pho2M FEN1 (Pyrococcus horikoshii, UniProt O50123 SEQ:1-343)
T2 chain: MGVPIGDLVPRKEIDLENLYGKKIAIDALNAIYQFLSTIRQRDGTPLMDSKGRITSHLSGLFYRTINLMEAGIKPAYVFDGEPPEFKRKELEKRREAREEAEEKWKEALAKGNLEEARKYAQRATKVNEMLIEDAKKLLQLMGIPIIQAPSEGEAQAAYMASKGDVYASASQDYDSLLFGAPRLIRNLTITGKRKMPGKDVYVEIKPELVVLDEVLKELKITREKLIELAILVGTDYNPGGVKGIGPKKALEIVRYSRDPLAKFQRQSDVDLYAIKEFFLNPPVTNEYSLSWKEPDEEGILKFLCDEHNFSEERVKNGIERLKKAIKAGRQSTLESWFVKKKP

T3: Pfu3M FEN1 (Pyrococcus furiosus, UniProt O93634 SEQ:1-340)
T3 chain: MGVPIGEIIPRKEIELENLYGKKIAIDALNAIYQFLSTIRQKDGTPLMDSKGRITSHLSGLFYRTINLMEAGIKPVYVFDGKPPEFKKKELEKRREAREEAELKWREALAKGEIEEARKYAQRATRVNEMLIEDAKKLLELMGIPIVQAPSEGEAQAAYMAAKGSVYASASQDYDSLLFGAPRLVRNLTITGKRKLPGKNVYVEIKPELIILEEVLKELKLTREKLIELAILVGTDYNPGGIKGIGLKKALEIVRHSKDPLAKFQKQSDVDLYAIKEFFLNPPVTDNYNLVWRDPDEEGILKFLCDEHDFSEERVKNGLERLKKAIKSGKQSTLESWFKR

T4: Pho4M FEN1 (Pyrococcus horikoshii, UniProt O50123 SEQ:1-343)
T4 chain: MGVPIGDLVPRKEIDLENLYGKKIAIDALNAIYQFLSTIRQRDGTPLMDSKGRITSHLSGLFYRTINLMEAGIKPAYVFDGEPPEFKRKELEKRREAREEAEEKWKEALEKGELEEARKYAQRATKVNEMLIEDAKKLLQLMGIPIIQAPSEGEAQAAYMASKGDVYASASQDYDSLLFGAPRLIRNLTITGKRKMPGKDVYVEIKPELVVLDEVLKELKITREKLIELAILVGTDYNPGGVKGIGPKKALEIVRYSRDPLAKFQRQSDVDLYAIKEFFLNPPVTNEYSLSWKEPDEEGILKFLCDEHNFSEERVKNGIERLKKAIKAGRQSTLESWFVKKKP

T5: Pho3M FEN1 (Pyrococcus horikoshii, UniProt O50123 SEQ:1-343)
T5 chain: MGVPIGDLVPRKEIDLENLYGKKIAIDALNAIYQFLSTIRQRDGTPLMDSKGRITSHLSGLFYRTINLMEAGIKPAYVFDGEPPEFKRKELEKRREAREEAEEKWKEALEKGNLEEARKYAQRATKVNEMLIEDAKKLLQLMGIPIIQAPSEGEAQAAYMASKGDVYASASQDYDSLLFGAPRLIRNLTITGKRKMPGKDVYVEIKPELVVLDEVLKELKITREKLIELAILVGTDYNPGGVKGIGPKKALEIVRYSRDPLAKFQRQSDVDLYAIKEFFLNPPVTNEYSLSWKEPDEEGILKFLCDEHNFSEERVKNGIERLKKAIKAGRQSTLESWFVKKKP

T6: Pfu1M FEN1 (Pyrococcus furiosus, UniProt O93634 SEQ:1-340)
T6 chain: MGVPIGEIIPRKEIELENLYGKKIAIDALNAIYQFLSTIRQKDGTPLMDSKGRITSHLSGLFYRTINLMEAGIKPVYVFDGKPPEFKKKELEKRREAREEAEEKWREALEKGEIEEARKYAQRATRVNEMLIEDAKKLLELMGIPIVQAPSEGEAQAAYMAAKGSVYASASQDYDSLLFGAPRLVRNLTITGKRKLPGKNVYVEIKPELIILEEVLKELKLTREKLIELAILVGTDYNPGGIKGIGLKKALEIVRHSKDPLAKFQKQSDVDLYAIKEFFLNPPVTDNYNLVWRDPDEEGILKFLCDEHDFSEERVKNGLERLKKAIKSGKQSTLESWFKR


Key:
Assay in all cases: cleavage_in_vitro; rate vs Pfu FEN1
[1] = molecular target: T1, Afu FEN1
Method: (§1) For the evaluation of chimeric enzymes, standard tests were performed to measure the performance and specificity of the enzymes. […] 10 μl reactions are run at 59 C for between 5 to 60 minutes depending on the enzyme. Reactions are stopped by the addition of 10 μl of 95% formamide, 0.02% methyl violet. 1 μl of the mixture is run on a denaturing 20% acrylamide gel and electrophoresed for 15 minutes or until good separation is achieved between cleaved and uncleaved probe. The gels are scanned using an FMBIO fluorescent gel scanner and the bands are quantified with FMBIOAnalysis software. Cleavage rates are determined from the percent probe cleaved. Cleavage rate for the INVADER substrate is defined as the number of probe molecules cleaved per target molecule per minute. In Table 5, below, the cleavage rates for the mutant enzymes are compared to the cleavage rates for unmodified Pfu FEN1 enzyme on the INVADER assay and X-structure substrates.
(§2) The X-structure substrate is used to determine the amount of background cleavage an enzyme will carry out in an INVADER reaction. It mimics the structure created by uncut primary probe and secondary FRET cassette in the INVADER squared reaction. […] 10 μl reactions are run at 59 C for between 3 to 30 minutes depending on the enzyme. Reactions are stopped by the addition of 10 μl of 95% formamide, 0.02% methyl violet. 1 μl of the mixture is run on a denaturing 20% acrylamide gel and electophoresed for 15 minutes or until good separation is achieved between cleaved and uncleaved probe. The gels are scanned using an FMBIO fluorescent gel scanner and the bands are quantified with FMBIOAnalysis software. Cleavage rates are determined from the percent probe cleaved.

[2] = molecular target: T2, Pho2M FEN1
Method: as §1, §2

[3] = molecular target: T3, Pfu3M FEN1
Method: as §1, §2

[4] = molecular target: T4, Pho4M FEN1
Method: as §1, §2

[5] = molecular target: T5, Pho3M FEN1
Method: as §1, §2

[6] = molecular target: T6, Pfu1M FEN1
Method: as §1, §2

[7] = label: 5'-biotin target, 5'-TET probe, hairpin target-INVADER with overlapping probe flap

Binder | cleavage rate ([1]; label: 5'-TET, X-structure) | cleavage rate ([2]; label: 5'-TET, X-structure) | cleavage rate ([3]; label: 5'-TET, X-structure) | cleavage rate ([4]; label: 5'-TET, X-structure) | cleavage rate ([5]; label: 5'-TET, X-structure) | cleavage rate ([6]; label: 5'-TET, X-structure) | cleavage rate [1, 7] | cleavage rate [2, 7] | cleavage rate [3, 7] | cleavage rate [4, 7] | cleavage rate [5, 7] | cleavage rate [6, 7]
X-structure 203-81-2/203-91-2 (structured_DNA, 3'-NH2 on first strand) DNA 1: TTTTCAACTGCTTAGAGAATCTAAGCAGTTGGTGCGCCTCGTTAA DNA 2: AACGAGGCGCACATT | 0.5 | 31 | 4.9 | 2.2 | 6.6 | 0.85 | – | – | – | – | – | –
INVADER substrate 594-12-1/203-91-1 (structured_DNA) DNA 1: TTTTTCACGGCAGTTGGTGCGCCTCGGAACGAGGCGCACA DNA 2: TTTTCAACTGCCGTGA | – | – | – | – | – | – | 0.52 | 1.6 | 1.8 | 1.3 | 0.95 | 0.83
